Data reported in paper PMC12709188, “Expanding the CarD interaction network: CrsL is a novel transcription regulator in actinobacteria” (Nucleic Acids Research, 2025).
Where “and” joins values, the source holds several entries; their conditions need not be identical. Equal values may be shown once.

B1: CarD–NT (in vitro purified CarD) (natural protein, M. smegmatis, UniProt A0R561 1-162, looked up)
chain: MIFKVGDTVVYPHHGAALIEAIETRTIKGEQKEYLVLKVAQGDLTVRVPADNAEYVGVRDVVGQEGLDKVFQVLRAPHTEEPTNWSRRYKANLEKLASGDVNKVAEVVRDLWRRDQERGLSAGEKRMLAKARQILVGELALAENTDDAKAETILDEVLAAAS
notes: CarD, transcription factor of M. smegmatis; dimer when alone (native gel); Uniformly 13C,15N-labelled for some NMR samples; also called [^13C,^15N]-CarD; source: E. coli (strain LK3209), purified (Ni-NTA, TEV protease cleavage; for NMR also Superdex 75)

How the values were obtained:
[1] = molecular target: the molecule itself; test: native gel or EMSA; purified CrsL, CarD and DnaK mixed in 1× STB buffer (50 mM Tris–HCl pH 8.0, 5 mM Mg acetate, 100 μM DTT, 50 mM KCl, 50 μg/ml BSA), 37°C 15 min; 8% native gel at 4°C; Coomassie stain, bands confirmed by mass spectrometry
[2] = molecular target: B1; test: ITC; 27.6 μM CarD in the cell titrated by 315 μM CrsL; 27°C; 50 mM Tris–HCl, 100 mM NaCl, 0.5 mM DTT, pH 7.5; one-site binding model; triplicate; details: both partners purified

Row | Kd [2] | dH [2] [kcal/mol] | stoichiometry N [2] | Binder | stoichiometry N [1]
1 |  |  |  | B1 | 2
2 | 4.3 nM and 4.5 nM and 3.3 nM | -21 | 1 | CrsL–His (in vitro purified CrsL) (natural protein, M. smegmatis, UniProt A0R4M8 1-54, looked up, CrsL, small protein (predicted MW 5.7 kDa) encoded by MSMEG_5890 of M. smegmatis; 15N- or 13C,15N-labelled for NMR; also called [^15N]-CrsL; [^13C,^15N]-CrsL; source: E. coli (strain LK3499), purified (Ni-NTA, Superdex 75; for NMR Superdex 30)) MPAKTDPADLGDVEPLADDTASQARRVVATYATDADECRMFLSMLGIGPSKTEV | 
